Tested on: subjects with previously treated locally advanced or metastatic urothelial cancer
Assay: EV-301: safety, adverse events (safety analysis set, NCI-CTCAE v4.03, MedDRA)
[1] = Grade Any, N = 296 EV, 291 chemotherapy
[2] = Grade ≥3, N = 296 EV, 291 chemotherapy
[3] = MedDRA v23.0, N = 296 EV, 291 chemotherapy
[4] = No baseline PN, n = 241 EV, 233 chemotherapy
[5] = PY = 132.3 EV, 96.1 chemotherapy
[6] = any event, N = 296 EV, 291 chemotherapy

From the text: The Safety Analysis Set (SAF) will be used for the safety analysis. All subjects who are randomized and received study drug will be included in the SAF. The frequency of AEs and the serious AEs will be summarized by MedDRA system organ class and preferred term. In addition, summary statistics will be provided for the following safety parameters: • Laboratory values • Vital sign measurements • ECOG PS
An AE is any untoward medical occurrence in a subject, temporally associated with the use of a medicinal product, whether or not considered related to the medicinal product. An AE can therefore be any unfavorable and unintended sign (including an abnormal laboratory finding), symptom, or disease (new or exacerbated) temporally associated with the use of a medicinal product.
AEs, including abnormal clinical laboratory values, will be graded using the NCI-CTCAE guidelines (Version 4.03).
The safety analysis set (SAF), which consists of all subjects who received any amount of study drug, will be used for safety analyses.
SAF was used to perform all safety analysis. All treated subjects were analyzed according to the treatment they received.
The number and percentage of AEs by severity were also summarized. All AEs were listed.
A study drug-related TEAE is defined as any TEAE with a causal relationship of YES by the investigator. AEs of interest as classified by customized MedDRA queries and/or standard MedDRA queries were also summarized.

Substance: enfortumab vedotin
- TRAE of special interest: Infusion-related reactions, % [1]: 8.8%
- TRAE of special interest: Infusion-related reactions, Local events, % [1]: 1.0%
- TRAE of special interest: Infusion-related reactions, Systemic events, % [1]: 7.8%
- TRAE of special interest: Ocular disorders, % [1]: 18.6%
- TRAE of special interest: Peripheral neuropathy, % [1]: 46.3%
- TRAE of special interest: Peripheral neuropathy, Motor events, % [1]: 7.4%
- TRAE of special interest: Peripheral neuropathy, Sensory events, % [1]: 43.9%
- TRAE of special interest: Rash, % [1]: 43.9%
- TRAE of special interest: Severe cutaneous adverse reaction, % [1]: 20.3%
- TRAE of special interest: Skin reactions, % [1]: 47.0%
- TRAE: Alopecia, Number of patients [2]: 0
- TRAE: Anemia, Number of patients [2]: 8
- TRAE: Anemia, percent [2]: (2.7) percent
- TRAE: Any adverse event, Number of patients [2]: 152
- TRAE: Any adverse event, percent [2]: (51.4) percent
- TRAE: Decreased appetite, Number of patients [2]: 9
- TRAE: Decreased appetite, percent [2]: (3.0) percent
- TRAE: Decreased neutrophil count, Number of patients [2]: 18
- TRAE: Decreased neutrophil count, percent [2]: (6.1) percent
- TRAE: Decreased white-cell count, Number of patients [2]: 4
- TRAE: Decreased white-cell count, percent [2]: (1.4) percent
- TRAE: Diarrhea, Number of patients [2]: 10
- TRAE: Diarrhea, percent [2]: (3.4) percent
- TRAE: Dysgeusia, Number of patients [2]: 0
- TRAE: Fatigue, Number of patients [2]: 19
- TRAE: Fatigue, percent [2]: (6.4) percent
- TRAE: Febrile neutropenia, Number of patients [2]: 2
- TRAE: Febrile neutropenia, percent [2]: (0.7) percent
- TRAE: Maculopapular rash, Number of patients [2]: 22
- TRAE: Maculopapular rash, percent [2]: (7.4) percent
- TRAE: Nausea, Number of patients [2]: 3
- TRAE: Nausea, percent [2]: (1.0) percent
- TRAE: Neutropenia, Number of patients [2]: 14
- TRAE: Neutropenia, percent [2]: (4.7) percent
- TRAE: Peripheral sensory neuropathy, Number of patients [2]: 9
- TRAE: Peripheral sensory neuropathy, percent [2]: (3.0) percent
- TRAE: Pruritus, Number of patients [2]: 4
- TRAE: Pruritus, percent [2]: (1.4) percent
- TEAE with special safety interest: Any corneal disorders (SMQ), % [3]: (1.0%)
- TEAE with special safety interest: Any hyperglycemia (SSQ/CMQ), % [3]: (11.8%)
- TEAE with special safety interest: Any infusion related reactions (SSQ/CMQ), % [3]: (9.1%)
- TEAE with special safety interest: Any peripheral neuropathy (SMQ), % [3]: (50.3%)
- TEAE with special safety interest: Any rashes or severe cutaneous adverse reactions, % [3]: (53.7%)
- Treatment-emergent Hyperglycemia, % [4]: (5.8) %
- Treatment-emergent Peripheral motor neuropathy, % [4]: (9.1) %
- Treatment-emergent Peripheral neuropathy, % [4]: (50.6) %
- Treatment-emergent Peripheral sensory neuropathy, % [4]: (48.5) %
- most frequent Grade 3 or greater adverse event(s): rash, hyperglycemia, decreased neutrophil count, fatigue, anemia and decreased appetite, share of patients (PADCEV arm): more than 5%
- Grade ≥3 severity TEAE, E (number of events) [5]: 617
- Grade ≥3 severity TEAE, E/PY [5]: (4.7) E/PY
- Grade ≥3 severity TRAE, E (number of events) [5]: 320
- Grade ≥3 severity TRAE, E/PY [5]: (2.4) E/PY
- Overall TEAE, E (number of events) [5]: 5051
- Overall TRAE, E (number of events) [5]: 3033
- Serious TEAE, E (number of events) [5]: 314
- Serious TRAE, E (number of events) [5]: 114
- TEAE Leading to death, E (number of events) [5]: 21
- TEAE Leading to death, E/PY [5]: (0.2) E/PY
- TEAE Leading to death, excluding disease progression, E (number of events) [5]: 11
- TEAE Leading to death, excluding disease progression, E/PY [5]: (0.1) E/PY
- TEAE Leading to dose interruption, E (number of events) [5]: 536
- TEAE Leading to dose interruption, E/PY [5]: (4.1) E/PY
- TEAE Leading to dose reduction, E (number of events) [5]: 170
- TEAE Leading to dose reduction, E/PY [5]: (1.3) E/PY
- TEAE Leading to treatment withdrawal, E (number of events) [5]: 66
- TEAE Leading to treatment withdrawal, E/PY [5]: (0.5) E/PY
- TRAE Leading to death, E (number of events) [5]: 7
- TRAE Leading to death, E/PY [5]: (0.1) E/PY
- TRAE Leading to death, excluding disease progression, E (number of events) [5]: 7
- TRAE Leading to death, excluding disease progression, E/PY [5]: (0.1) E/PY
- TRAE Leading to dose interruption, E (number of events) [5]: 384
- TRAE Leading to dose interruption, E/PY [5]: (2.9) E/PY
- TRAE Leading to dose reduction, E (number of events) [5]: 165
- TRAE Leading to dose reduction, E/PY [5]: (1.2) E/PY
- TRAE Leading to treatment withdrawal, E (number of events) [5]: 51
- TRAE Leading to treatment withdrawal, E/PY [5]: (0.4) E/PY
- TRAE Leading to dose interruption, % [6]: (51.0) %
- TRAE Leading to dose reduction, % [6]: (32.4) %
- TRAE Leading to dose withdrawal, % [6]: (13.5) %
- Adverse events, regardless of relationship to treatment, that resulted in death (excluding disease progression) during the treatment period (in vivo): 11 patients
- Investigator-assessed treatment-related adverse events that resulted in death (in vivo): 7 patients
- Investigator-assessed treatment-related adverse events that resulted in death, % (in vivo): 2.4%
- Skin reactions and peripheral neuropathy among treatment-related adverse events of special interest (in vivo): most frequent
- Treatment-related adverse events of grade 3 or higher, rate after adjustment for treatment exposure (in vivo): 2.4 events per patient-year
- time to first onset of grade ≥2 peripheral neuropathy, median (range) (in vivo): 4.435 (0.36, 12.02) months
- treatment-related death: abnormal hepatic function (in vivo): 1 patient
- treatment-related death: hyperglycemia (in vivo): 1 patient
- treatment-related death: multiorgan dysfunction syndrome (in vivo): 2 patients
- treatment-related death: pelvic abscess (in vivo): 1 patient
- treatment-related death: pneumonia (in vivo): 1 patient
- treatment-related death: septic shock (in vivo): 1 patient
- Time to Onset of TRAE of special interest: Blurred vision, Median (range) (patients with the event): 2.448 months
- Time to Onset of TRAE of special interest: Corneal disorders, Median (range) (patients with the event): 4.337 months
- Time to Onset of TRAE of special interest: Dry eye, Median (range) (patients with the event): 1.906 months
- Time to Onset of TRAE of special interest: Hyperglycemia, Median (range) (patients with the event): 0.559 months
- Time to Onset of TRAE of special interest: Infusion-related reactions, Median (range) (patients with the event): 0.509 months
- Time to Onset of TRAE of special interest: Peripheral neuropathy, Median (range) (patients with the event): 2.694 months
- Time to Onset of TRAE of special interest: Skin reactions, Median (range) (patients with the event): 0.427 months
- incidence of treatment-related adverse events (safety population): 93.9%

From patent US20230330251A1, “METHODS FOR TREATING CANCERS WITH ANTIBODY DRUG CONJUGATES (ADC) THAT BIND TO 191P4D12 PROTEINS” (AGENSYS, INC., priority 2020, published 2023)
